Measured values as given in US20230355533A1, “BIODEGRADABLE POLYCAPROLACTONE CAPSULE FOR ANTIBODY RELEASE AND DEGRADATION” (University Of Cincinnati, priority 2022, published 2023).

Experiments:
TNF-α stimulated HUVECs = assay: IL-6 ELISA assay; format: cell-based, Human; settings: Dex 33 μM, 24 h pretreatment, then 20 ng/mL TNF-α 24 h
Description: Human primary umbilical vein endothelial cells (HUVECs) were maintained in EBMTM-2 Basal Medium and EGMTM-2 SingleQuots™ Supplements (Lonza, Switzerland). HUVECs were grown in the cell incubator containing 5% CO2 at 37° C. When the cells were grown to 90% confluence, they were inoculated in 24-well plates. Briefly, 0.4 mL of HUVECs suspensions (8×104 HUVECs per well) were seeded in 24-well plates and incubated at 37° C, 5% CO2 for 24 h. […] After 24 h, all the conditions except the medium only were incubated with 20 ng/mL TNF-α for 24 h. […] At the end of experiments, the cell medium was collected and centrifuged at 2,000×g for 10 min to remove the particulate/debris materials. Then, supernatant was collected and stored at −20° C. until used. Each sample was pre-diluted using a standard dilution buffer to keep the sample concentrations within the range of standard curve. The concentration of pro-inflammatory cytokine (IL-6) in the cell culture supernatant was analyzed by the ELISA assay according to the manufacturer's recommendation (Invitrogen® human IL-6 ELISA kit). All tests were done in triplicate.

[1] = Bev partition coefficient in PCL membrane; format: physicochemical; settings: equilibrium solution of 20 mg/mL
Description: The partition coefficient K is required for the release kinetics model equation. […] The membranes were soaked in 200 μL of PBS for 48 h. After 48 h the membranes were blotted with a Kimwipe to remove surface liquid and then weighed to determine the wet mass of the membrane. The membranes were then dried overnight in a chemical hood. The dry membranes were then placed in 200 μL of an equilibrium Bev solution for 72 h to allow the membranes to absorb the Bev from the solution. After 72 h the membranes were removed from the equilibrium, blotted, and placed in 200 μL of fresh PBS to extract Bev for 48 h. This extraction process was repeated until the amount extracted was 10% of the first extraction. The remaining equilibrium solution and all extraction solutions were analyzed using UV-Vis to determine the Bev concentration. The partition coefficient was then determined using the equation below.
where Me is the total mass extracted, W is the wet mass of the membrane, Meq is the amount of Bev left in the equilibrium solution, V is the volume of water left in the equilibrium solution, and ρ is the density of the solution.

[2] = Bev drug release kinetics model (cylindrical reservoir); settings: calculated from Stokes-Einstein diffusion coefficient and hindrance factor
Description: The equation used to model the release profile is
where Mt is the mass released at time t, M∞, is the mass loaded in the implant, Ri is the inner radius of the implant, Ro is outer radius of the implant, De is the effective diffusivity, K is the partition coefficient, and L is the length of the implant. This equation models Fick's law of diffusion of molecules from the lumen of a cylindrical implant through a membrane wall. Ro, Ri, and L can all be measured from the implants, but De and K must be determined experimentally or calculated from other parameters that can be determined experimentally to create this model. K may be determined experimentally, as described herein. To find De, permeability, Stokes-Einstein diffusion, hindrance factor for diffusion, hindrance factor, and the restrictive factor all were determined experimentally or calculated.
The permeability of Bev across the PCL membrane can be described by […]
where kB is the Boltzmann constant, T is the temperature in Kelvin, η is the viscosity of water at 25° C., and r is the hydrodynamic radius of Bev. The overall hindrance factor for diffusion, H, is expressed as: […]
where λ is the ratio of permeant radius to pore radius and Kt, the hinderance factor, is calculated by: […]
The last value that needs to be determined for Equation 3 is effective diffusivity (De). De can be determined from the equation: […]

[3] = Bev permeability across PCL membrane, vertical permeability column; format: physicochemical; settings: 0.05 PEG PCL membrane, donor 50 mg/mL, area 0.78 cm^2
Description: The permeability experiments were conducted using a vertical permeability column. The donor side was filled with 200 μL of 50 mg/mL Bev solution and the receiver side was filled with 5 mL of PBS. […] The membranes were soaked in DI water for 24 h to remove the PEG and then placed in the column without drying. Once the membrane was securely placed between the donor and receiver sections, 200 μL of the donor solution was loaded and then the opening was sealed off to reduce evaporation altering the concentration of the donor and receiver solutions. 500 μL of the receiver and 10 μL of the donor solution were removed every 72 h to check the concentration using UV-Vis. The removed solutions were replaced by fresh PBS for the receiver solution and the donor was replaced by fresh donor solution or completely replaced depending on the remaining concentration.
After 12 days, the mass of Bev that permeated the membrane was plotted against time to get dQ/dt in the equation: […]
where Ci is the initial concentration (donor solution concentration), P is the permeability coefficient, and A is the area of the exposed membrane.

| Substance | IL-6 level in cell culture medium compared to TNF-α stimulated HUVECs (condition 2) (TNF-α stimulated HUVECs) | partition coefficient K [1] | effective diffusion coefficient De [2] | Bev permeated across the membrane [3] |
| --- | --- | --- | --- | --- |
| Dexamethasone sodium phosphate [free Dex] | not significantly decreased |  |  |  |
| Bevacizumab |  | 0.515 | 5.59 × 10^−6 cm^2/day | 42.5 µg/day |
